B1: hum EN10 mAb 4D5 (antibody, V domains shown)
VH: EVQLVESGGGLVQPGGSLRLSCAASGYTFTSCVMNWVRQAPGKGLEWVAYINPYNDGTKYNEKFKGRFTISRDDSKNTLYLQMNSLRAEDTAVYYCAREGFYYGNFDNWGQGTLVTVSS
VL: DIQMTQSPSSLSASVGDRVTITCRASENIYSYLTWYQQKPGKAPKLLIYNAKTLPEGVPSRFSGSGSGTDFTLTISSLQPEDFATYYCQHHYGTPYTFGQGTKLEIKR
notes: Humanized variable regions on human IgG; also called humanized EN10 mAb 4D5; 4D5 humanized edition
B2: hum EN10 mAb IMGT (antibody, V domains shown)
VH: QVQLVQSGAEVKKPGASVKVSCKASGYTFTSCVMNWVRQAPGQGLEWMGYINPYNDGTKYNEKFKGRVTMTTDTSTSTAYMELRSLRSDDTAVYYCAREGFYYGNFDNWGQGTLVTVSS
VL: B1 VL
notes: Humanized variable regions on human IgG; also called Hum EN10 IMGT; humanized EN10 mAb IMGT

How the values were obtained:
human ENO1 protein [1] = biological target: T1, human ENO1 protein (human, UniProt P06733 1-434, limits assumed); assay: SPR, BIAcore 2000, ENO1 injected, 25 degree C
T1 construct: The source and construct of the ENO1 protein used in ELISA and SPR are not described; also called alpha-enolase; enolase-1
T1 sequence (P06733 whole entry): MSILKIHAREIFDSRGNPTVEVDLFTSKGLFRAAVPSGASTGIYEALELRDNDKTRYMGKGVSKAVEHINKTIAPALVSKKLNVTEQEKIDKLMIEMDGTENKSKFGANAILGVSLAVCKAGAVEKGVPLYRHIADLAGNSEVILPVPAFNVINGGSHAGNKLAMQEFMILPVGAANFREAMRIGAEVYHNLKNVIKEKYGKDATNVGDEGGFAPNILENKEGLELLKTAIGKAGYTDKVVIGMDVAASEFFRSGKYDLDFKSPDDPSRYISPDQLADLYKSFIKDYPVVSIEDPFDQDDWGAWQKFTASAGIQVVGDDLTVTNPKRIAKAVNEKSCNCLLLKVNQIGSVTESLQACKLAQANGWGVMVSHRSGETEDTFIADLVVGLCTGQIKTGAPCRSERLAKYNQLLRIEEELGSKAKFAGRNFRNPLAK
Description: To know the biding kinetics difference among individual antibodies, surface plasmon resonance (SPR) measurement with a BIAcore 2000 (BIAcore, Inc., Piscataway, N.J.) was used as previously described (Karlsson & Falt, (1997) J. Immunol Methods 200:121-133). Carboxymethylated dextran biosensor chips (CMS, BIAcore Inc.) were activated with N-ethyl-N′-(3-dimethylaminopropyl)-carbodiimide hydrochloride (EDC) and N-hydroxysuccinimide (NHS) according to the supplier's instructions. Chimera EN10 mAb was diluted with 10 mM sodium acetate, pH 4.8, into 5 microgram/ml before injection at a flow rate of 20 micro Uminute to achieve approximately 100 response units (RU) of coupled protein followed by the injection of 1M ethanolamine to block unreacted groups. For kinetics measurements, two-fold serial dilutions of ENO1 (0.3125 nM to 40 nM) were injected in HBS-P Biacore running buffer provided by the manufacturer (BIAcore, Inc., Piscataway, N.J.) at 25 degree C. at a flow rate of 25 microL/min, and binding responses on the EN10 mAb were corrected by subtraction of responses on a blank flow cell. Association rates (kon or ka) and dissociation rates (koff or kd) were calculated using a simple one-to-one Langmuir binding model with separate fittings of kon and koff was used. (BIAcore™ Evaluation Software version 3.2).

human ENO1 protein [2] = biological target: T1, human ENO1 protein; assay: ENO1 binding ELISA

Binder | Kd (human ENO1 protein [1]) [nM] | koff (human ENO1 protein [1]) [s⁻¹] | kon (human ENO1 protein [1]) [M⁻¹ s⁻¹] | Kd (human ENO1 protein [2]) [nM]
B1 | 0.5 | 0.000176 | 351000 | –
B2 | 0.219 | 0.000116 | 531000 | 0.0365

Reference: patent US20160185876A1 (DEVELOPMENT CENTER FOR BIOTECHNOLOGY, published 2016)
